As usually defined, the stoichiometry N is a count of units in the complex or per binding partner.

Data set [1] concerns the molecule itself. The data set is described as follows: static light scattering; 0.2 mg/ml protein in 100 mM Tris-HCl pH 7 at 25°C, Zetasizer µV; mass estimated for a spherical particle.
The target of data set [2] is T1, E. coli SSB (single-stranded DNA binding protein), wild type (E. coli, UniProt P0AGE0 1-178).
T1 construct: also called wt SSB; source: purified as described [13]
T1 sequence (P0AGE0 whole entry): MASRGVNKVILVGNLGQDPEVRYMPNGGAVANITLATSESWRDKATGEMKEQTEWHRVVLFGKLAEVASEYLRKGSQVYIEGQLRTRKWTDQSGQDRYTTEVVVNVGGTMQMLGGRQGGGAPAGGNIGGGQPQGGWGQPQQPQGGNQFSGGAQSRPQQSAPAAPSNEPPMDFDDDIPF
As to the kind of experiment: far-Western; purified SSB wt or mutant (0.5-5 µg) separated on 15% SDS-PAGE, blotted to PVDF, probed with 20-30 µg YbcN or Orf fused to MBP or GST; detected with anti-MBP or anti-GST antibodies. The conditions noted are these: both partners purified.

Data set [3] concerns the molecule itself. The data set is described as follows: SEC; 1 mg/ml protein on a 24 ml Superose 6HR 10/30 column in 20 mM Tris-HCl pH8, 1 mM EDTA, 0.5 mM DTT, 250 mM KCl. A general note: SEC sorts molecules by how far they enter the pores of the column.
Data set [4] concerns the molecule itself. As to the kind of experiment: SDS-PAGE of unboiled samples; purified protein on 12.5% SDS-PAGE without boiling and without a reducing agent, Coomassie blue.
The target in data set [5] is T1, E. coli SSB (single-stranded DNA …). As to the kind of experiment: ELISA; SSB wt or mutant (0.5 µg) bound to the microtitre plate in PBS, GST fusion added for 1 hr at 37°C, detected with HRP-anti-GST antibody, A620nm. As to conditions: both partners purified. (ELISA stands for enzyme-linked immunosorbent assay.)
Data set [6] has as its target T2, MBP-YbcN (Escherichia coli cryptic prophage DLP12 …, UniProt Q47269 1-151).
T2 sequence: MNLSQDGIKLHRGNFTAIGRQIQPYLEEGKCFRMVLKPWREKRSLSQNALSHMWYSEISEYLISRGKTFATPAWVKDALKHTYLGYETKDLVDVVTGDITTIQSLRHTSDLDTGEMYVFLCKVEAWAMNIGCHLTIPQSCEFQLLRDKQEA
As to the kind of experiment: fluorescence anisotropy; apparent, per dimer; EMSA: 50 mM Tris-HCl pH 8.0, 5 mM EDTA (or 1 mM MgCl2), 1 mM DTT, 5% glycerol, 100 ug/ml BSA, on ice 15 min, 4% PAGE; anisotropy: 100 mM Tris-HCl pH 7.0, 10 nM. As to conditions: protein: recombinant, tags: N-terminal MBP, chain copies: 2. Background: Fluorescence polarisation rises when a labelled molecule tumbles more slowly, as on binding a larger partner.

The next data set deals with T3, MBP-Orf Q45A (Bacteriophage lambda, UniProt P03765 1-146, Q45A).
T3 sequence: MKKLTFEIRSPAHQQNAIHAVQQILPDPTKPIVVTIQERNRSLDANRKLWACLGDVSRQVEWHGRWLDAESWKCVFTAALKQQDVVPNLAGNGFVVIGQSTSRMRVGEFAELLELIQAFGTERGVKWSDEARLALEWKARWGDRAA
The data set is described as above. As to conditions: protein: recombinant, tags: N-terminal MBP, chain copies: 2.

The target in the next data set is T4, MBP-Orf V106E (Bacteriophage lambda, UniProt P03765 1-146, V106E).
T4 sequence: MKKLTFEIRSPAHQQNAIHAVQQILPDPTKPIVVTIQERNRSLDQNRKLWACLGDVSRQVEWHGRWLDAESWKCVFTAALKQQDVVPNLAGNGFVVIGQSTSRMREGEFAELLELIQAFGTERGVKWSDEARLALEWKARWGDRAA
The data set is described as above. As to conditions: protein: recombinant, tags: N-terminal MBP, chain copies: 2.

The target of another data set is T5, MBP-Orf K48A (Bacteriophage lambda, UniProt P03765 1-146, K48A).
T5 sequence: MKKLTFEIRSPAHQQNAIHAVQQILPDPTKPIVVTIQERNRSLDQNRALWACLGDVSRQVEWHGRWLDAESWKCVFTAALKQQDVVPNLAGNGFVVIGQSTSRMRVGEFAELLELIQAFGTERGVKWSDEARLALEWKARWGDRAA
Described as above. The conditions noted are these: protein: recombinant, tags: N-terminal MBP, chain copies: 2.

The target of another data set is T6, MBP-Orf W137A (Bacteriophage lambda, UniProt P03765 1-146, W137A).
T6 sequence: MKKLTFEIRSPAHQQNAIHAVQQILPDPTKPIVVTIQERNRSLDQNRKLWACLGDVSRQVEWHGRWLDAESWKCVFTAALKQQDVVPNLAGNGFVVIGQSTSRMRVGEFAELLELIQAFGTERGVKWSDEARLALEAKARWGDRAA
The description is as above. As to conditions: protein: recombinant, tags: N-terminal MBP, chain copies: 2.

In a further data set the target is T7, MBP-Orf W50A (Bacteriophage lambda, UniProt P03765 1-146, W50A).
T7 sequence: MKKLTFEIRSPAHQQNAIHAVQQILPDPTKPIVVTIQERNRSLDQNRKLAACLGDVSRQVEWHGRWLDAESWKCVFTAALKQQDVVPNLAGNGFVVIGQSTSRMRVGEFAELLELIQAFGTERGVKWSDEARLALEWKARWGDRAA
The data set is described as above. As to conditions: protein: recombinant, tags: N-terminal MBP, chain copies: 2.

Data set [7] concerns the target T8, MBP-Orf (Bacteriophage lambda, UniProt P03765 1-146).
T8 sequence: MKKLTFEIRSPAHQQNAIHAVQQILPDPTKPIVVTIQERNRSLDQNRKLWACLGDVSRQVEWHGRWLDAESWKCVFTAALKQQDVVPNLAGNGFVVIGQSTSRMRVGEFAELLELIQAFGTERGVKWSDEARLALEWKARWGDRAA
The description is as above. As to conditions: protein: recombinant, tags: N-terminal MBP, chain copies: 2.

Another data set has as its target T9, MBP-Orf R103E (Bacteriophage lambda, UniProt P03765 1-146, R103E).
T9 sequence: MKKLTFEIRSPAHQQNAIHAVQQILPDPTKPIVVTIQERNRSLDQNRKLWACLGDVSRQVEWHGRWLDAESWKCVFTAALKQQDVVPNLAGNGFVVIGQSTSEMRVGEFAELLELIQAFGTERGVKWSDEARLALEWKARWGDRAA
As to the kind of experiment: fluorescence anisotropy; dash in table; most severely deficient; EMSA: 50 mM Tris-HCl pH 8.0, 5 mM EDTA (or 1 mM MgCl2), 1 mM DTT, 5% glycerol, 100 ug/ml BSA, on ice 15 min, 4% PAGE; anisotropy: 100 mM Tris-HCl pH 7.0, 10 nM. The conditions noted are these: protein: recombinant, tags: N-terminal MBP, chain copies: 2.

Data set [8] concerns the target T2, MBP-YbcN. The data set is described as follows: EMSA; 5 mM EDTA; three complexes; EMSA: 50 mM Tris-HCl pH 8.0, 5 mM EDTA (or 1 mM MgCl2), 1 mM DTT, 5% glycerol, 100 ug/ml BSA, on ice 15 min, 4% PAGE; anisotropy: 100 mM Tris-HCl pH 7.0, 10 nM. As to conditions: protein: recombinant; tags: N-terminal MBP; chain copies: 2; label: 5'-32P on strand 1; blunt.
For data set [9], the target named is T8, MBP-Orf. As to the kind of experiment: fluorescence anisotropy; some preference over duplex control; data varied; EMSA: 50 mM Tris-HCl pH 8.0, 5 mM EDTA (or 1 mM MgCl2), 1 mM DTT, 5% glycerol, 100 ug/ml BSA, on ice 15 min, 4% PAGE; anisotropy: 100 mM Tris-HCl pH 7.0, 10 nM. As to conditions: protein: recombinant; tags: N-terminal MBP; chain copies: 2; label: 3'-fluorescein on strand 1; blunt, central single T:G mismatch.

The target of data set [10] is T2, MBP-YbcN. As to the kind of experiment: EMSA; 5 mM EDTA; no preference over DS60; EMSA: 50 mM Tris-HCl pH 8.0, 5 mM EDTA (or 1 mM MgCl2), 1 mM DTT, 5% glycerol, 100 ug/ml BSA, on ice 15 min, 4% PAGE; anisotropy: 100 mM Tris-HCl pH 7.0, 10 nM. As to conditions: protein: recombinant; tags: N-terminal MBP; chain copies: 2; label: 5'-32P on strand 1; blunt, central single G:G mismatch.

[11] abbreviates: label: 3'-fluorescein, single strand.
[12] abbreviates: label: 3'-fluorescein on strand 1, blunt, central 20 nt bubble.

B1: MBP-Orf (bacteriophage λ Orf fused to maltose binding protein), wild type (natural protein)
chain: MKKLTFEIRSPAHQQNAIHAVQQILPDPTKPIVVTIQERNRSLDQNRKLWACLGDVSRQVEWHGRWLDAESWKCVFTAALKQQDVVPNLAGNGFVVIGQSTSRMRVGEFAELLELIQAFGTERGVKWSDEARLALEWKARWGDRAA
notes: Orf (NinB) of bacteriophage λ, a 17 kDa protein; predicted MBP-Orf monomer 59.6 kDa; also called Orf wt; λ MBP-Orf; source: purified as described [13]
Take B1: the binding result in [1] and in data set [2] was “binds” each time.

B2: MBP-YbcN (E. coli maltose binding protein fused to the N-terminus of DLP12 YbcN) (natural protein, E. coli (cryptic prophage DLP12), UniProt Q47269 1-151, looked up)
chain: MNLSQDGIKLHRGNFTAIGRQIQPYLEEGKCFRMVLKPWREKRSLSQNALSHMWYSEISEYLISRGKTFATPAWVKDALKHTYLGYETKDLVDVVTGDITTIQSLRHTSDLDTGEMYVFLCKVEAWAMNIGCHLTIPQSCEFQLLRDKQEA
notes: YbcN (orf151), Orf-family protein of E. coli cryptic prophage DLP12; the gene was amplified from AB1157 genomic DNA, forward primer at the ATG; predicted monomer of the MBP fusion 60.4 kDa; Construct in pMALc2; also called DLP12 MBP-YbcN; orf151; source: E. coli DH5α or BL21 (DE3) Rosetta carrying pLB101, purified (amylose; additional stocks amylose and heparin agarose)
As to B2, the “stoichiometry N” value in [3] amounted to 2. Also, the binding result in data set [2] is “binds”.

B3: GST-YbcN (N-terminal glutathione S-transferase fusion of DLP12 YbcN) (natural protein, E. coli (cryptic prophage DLP12), UniProt Q47269 1-151, looked up)
chain: MNLSQDGIKLHRGNFTAIGRQIQPYLEEGKCFRMVLKPWREKRSLSQNALSHMWYSEISEYLISRGKTFATPAWVKDALKHTYLGYETKDLVDVVTGDITTIQSLRHTSDLDTGEMYVFLCKVEAWAMNIGCHLTIPQSCEFQLLRDKQEA
notes: YbcN (orf151), Orf-family protein of E. coli cryptic prophage DLP12; insert of pLB101 moved into pGEX-6P-1; predicted monomer of the GST fusion 44.6 kDa; higher oligomers are put down to dimer-dimer combinations; also called DLP12 GST-YbcN; source: E. coli BL21 Codon Plus carrying pLB108, purified (glutathione sepharose, heparin agarose, Q sepharose); not shown: GST, N-terminal, kept
Consider B3, for which the “stoichiometry N” value in data set [4] is 4. Besides, in [5], the binding result is recorded as “binds”.

B4: SS60-fluorescein (ssDNA)
DNA: TTTGGTCTAACTTTACCGCTACTAAATGCCGCGGATTGGTTTCGCTGAATCAGGTTATTA
Take B4: the Kd with MBP-YbcN [6] (setting [11]) was 4.6 ± 0.275 µM; with MBP-Orf Q45A (setting [11]), 272 ± 20.4 nM; with MBP-Orf V106E (setting [11]), 522 ± 12.4 nM; in the data set with MBP-Orf K48A (setting [11]), 622 ± 0.7 nM; in the data set with MBP-Orf W137A (setting [11]), 628 ± 99.9 nM; with MBP-Orf W50A (setting [11]), 3540 ± 288 nM. Besides, the Kd with MBP-Orf [7] (setting [11]) worked out at 223 ± 72.6 nM. For the same molecule, the binding result with MBP-Orf R103E (setting [11]) was “no binding”.

B5: BB20-fluorescein (structured_DNA)
DNA 1: TTTGGTCTAACTTTACCGCTACTAAATGCCGCGGATTGGTTTCGCTGAATCAGGTTATTA
DNA 2: TAATAACCTGATTCAGCGAATGACCGATAACGTCCACTTGAGCGGTAAAGTTAGACCAAA
In the case of B5, the Kd with MBP-YbcN [6] (setting [12]) stood at 1.619 ± 0.0032 µM; with MBP-Orf Q45A (setting [12]) it was 264 ± 15.2 nM; with MBP-Orf V106E (setting [12]), 540 ± 73.2 nM; in the data set with MBP-Orf K48A (setting [12]), 551 ± 6.4 nM; in the data set with MBP-Orf W137A (setting [12]), 285 ± 1.9 nM; with MBP-Orf W50A (setting [12]), 1610 ± 418 nM. Moreover, the Kd with MBP-Orf [7] (setting [12]) was 173 ± 20.9 nM. In the data set with MBP-Orf R103E (setting [12]), the binding result is “no binding”.

B6: DS60 (dsDNA)
DNA 1: TTTGGTCTAACTTTACCGCTACTAAATGCCGCGGATTGGTTTCGCTGAATCAGGTTATTA
DNA 2: TAATAACCTGATTCAGCGAAACCAATCCGCGGCATTTAGTAGCGGTAAAGTTAGACCAAA
As to B6, in the data set with MBP-YbcN [8], the binding result is “binds”.

B7: MMT:G-fluorescein (dsDNA)
DNA 1: TTTGGTCTAACTTTACCGCTACTAAATGCCGCGGATTGGTTTCGCTGAATCAGGTTATTA
DNA 2: TAATAACCTGATTCAGCGAAACCAATCTGCGGCATTTAGTAGCGGTAAAGTTAGACCAAA
Regarding B7, the binding result with MBP-Orf [9] is given as “binds”.

B8: MMG:G (dsDNA)
DNA 1: TTTGGTCTAACTTTACCGCTACTAAATGCCGCGGATTGGTTTCGCTGAATCAGGTTATTA
DNA 2: TAATAACCTGATTCAGCGAAACCAATCGGCGGCATTTAGTAGCGGTAAAGTTAGACCAAA
For the molecule B8, the binding result with MBP-YbcN [10] was “binds”.
